# Read-outs that look alike come from different tables or passages of the source.
# Columns and labels:
# [1] = in vivo, cited from earlier work
# patients with T2DM = assay: Phase 3 pooled analysis (Harmony 2, 4, 5, 8) of efficacy and safety by renal impairment severity, through primary endpoint (26 to 52 weeks)
# Description: Patients with T2DM were enrolled in 3 similarly designed Phase 3 studies ^11-13 (Harmony 2, Harmony 4 and Harmony 5) and one Phase 3 study in patients with varying degrees of renal impairment (Harmony 8). ^10 These studies were randomized, double-blind (one open-label), active- (sitagliptin, pioglitazone, or glimepiride) or placebo-controlled, parallel-group, multicenter trials in which albiglutide (30 to 50 mg) was administered once weekly. In all 4 studies, men and nonpregnant women who were ≧18 years of age with a historical diagnosis of T2DM, and who were inadequately controlled (HbA1c≧7.0% and ≦10.0%) on diet and exercise and/or their current regimen of anti-diabetic agents (ie, metformin, thiazolidinedione, sulfonylurea, or any combination of these oral anti-diabetic medications) were eligible to enroll. Additional eligibility criteria included fasting C peptide of ≧0.8 ng/mL (≧0.26 nmol/L) and BMI between 20 and 45 kg/m^2. Harmony 8, the study in CKD patients, required estimated GFR≧15 and <90 mL/min/1.73 m^2, whereas the other 3 studies required estimated GFR>60 mL/min/1.73 m^2. […] Patients who met additional exclusion criteria, including requirements for levels of total bilirubin, alanine aminotransferase, aspartate aminotransferase, amylase, lipase, fasting triglycerides, and hemoglobin were also excluded.
# Efficacy (HbA1c, fasting plasma glucose [FPG] and body weight) was assessed in each of the 4 studies by change from baseline to the primary endpoint (week 26 to week 52) using last observation carried forward for missing data. Rescue medications were allowed in subjects with persistent hyperglycemia (REF), however, efficacy data obtained after hyperglycemic rescue were not included and replaced with pre-rescue values for efficacy evaluation. Safety was assessed by monitoring the incidence of treatment emergent adverse events throughout the studies.
# To evaluate efficacy and tolerability in different renal population, efficacy and tolerability data from patients with pop PK sample across 4 Phase 3 studies were extracted. Descriptive analysis were conducted up to primary endpoint (week 52 for Harmony 2, Harmony 4 and Harmony 5 and week 26 for study Harmony 8). Baseline demographics are summarized by renal impairment severity (normal, mild, moderate and severe). Efficacy parameters such as change from baseline of HbA1c, FPG, weight are also summarized by renal impairment severity. LOCF (Last Observation Carried Forward) approach is used in efficacy evaluation. Except for hypoglycemia, tolerability (AE, SAE and AE cause withdraw) were summarized by renal impairment severity for all data up to primary endpoint including post-rescue data. Hypoglycemia events (severe and documented symptomatic) were evaluated by renal impairment severity only include pre-rescue data.
# [2] = range over renal function groups of the pooled analysis
substance,measurement,setting,value
Albiglutide: recombinant fusion protein of 2 copies of modified human GLP-1 (fragment 7-36(A8G)) genetically fused in series to recombinant human serum albumin,half-life,[1],approximately 5 days
same,half-life,[1]; listed as SEQ ID NO:1,about 5 days
same,neutralizing anti-albiglutide antibodies,patients with T2DM; 4 trials of the pooled analysis,none of the antibodies were neutralizing
same,"Pre-Rescue Hypoglycemia: Documented Symptomatic, With background SU",patients with T2DM; Mild,70 (17) N (%)
same,"Pre-Rescue Hypoglycemia: Documented Symptomatic, Without background SU",patients with T2DM; Mild,3 (1.4) N (%)
same,"Pre-Rescue Hypoglycemia: Severe, With background SU",patients with T2DM; Mild,1 (0.2) N (%)
same,"Pre-Rescue Hypoglycemia: Severe, Without background SU",patients with T2DM; Mild,0 (0) N (%)
same,AEs leading to withdrawal,patients with T2DM; Mild (n = 633),37 (5.8) N (%)
same,Abdominal distention,patients with T2DM; Mild (n = 633),5 (0.8) N (%)
same,Anemia,patients with T2DM; Mild (n = 633),15 (2.4) N (%)
same,Any AE,patients with T2DM; Mild (n = 633),511 (81) N (%)
same,Constipation,patients with T2DM; Mild (n = 633),25 (3.9) N (%)
same,Diarrhea,patients with T2DM; Mild (n = 633),55 (8.7) N (%)
same,Edema peripheral,patients with T2DM; Mild (n = 633),21 (3.3) N (%)
same,Gastrointestinal disorders system organ class: Any event,patients with T2DM; Mild (n = 633),205 (32) N (%)
same,Injection site reaction,patients with T2DM; Mild (n = 633),51 (8.1) N (%)
same,Nasopharyngitis,patients with T2DM; Mild (n = 633),51 (8.1) N (%)
same,Nausea,patients with T2DM; Mild (n = 633),60 (9.5) N (%)
same,Pre-Rescue Hypoglycemia: Documented Symptomatic (overall),patients with T2DM; Mild (n = 633),73 (12) N (%)
same,Pre-Rescue Hypoglycemia: Severe (overall),patients with T2DM; Mild (n = 633),1 (0.2) N (%)
same,Renal Impairment (adverse event),patients with T2DM; Mild (n = 633),0 (0) N (%)
same,Serious AE,patients with T2DM; Mild (n = 633),52 (8.2) N (%)
same,"Pre-Rescue Hypoglycemia: Documented Symptomatic, With background SU",patients with T2DM; Moderate,28 (20) N (%)
same,"Pre-Rescue Hypoglycemia: Documented Symptomatic, Without background SU",patients with T2DM; Moderate,0 (0) N (%)
same,"Pre-Rescue Hypoglycemia: Severe, With background SU",patients with T2DM; Moderate,0 (0) N (%)
same,"Pre-Rescue Hypoglycemia: Severe, Without background SU",patients with T2DM; Moderate,0 (0) N (%)
same,AEs leading to withdrawal,patients with T2DM; Moderate (n = 175),11 (6.3) N (%)
same,Abdominal distention,patients with T2DM; Moderate (n = 175),2 (1.1) N (%)
same,Anemia,patients with T2DM; Moderate (n = 175),5 (2.9) N (%)
same,Any AE,patients with T2DM; Moderate (n = 175),139 (79) N (%)
same,Constipation,patients with T2DM; Moderate (n = 175),11 (6.3) N (%)
same,Diarrhea,patients with T2DM; Moderate (n = 175),23 (13) N (%)
same,Edema peripheral,patients with T2DM; Moderate (n = 175),4 (2.3) N (%)
same,Gastrointestinal disorders system organ class: Any event,patients with T2DM; Moderate (n = 175),58 (33) N (%)
same,Injection site reaction,patients with T2DM; Moderate (n = 175),12 (6.9) N (%)
same,Nasopharyngitis,patients with T2DM; Moderate (n = 175),14 (8.0) N (%)
same,Nausea,patients with T2DM; Moderate (n = 175),13 (7.4) N (%)
same,Pre-Rescue Hypoglycemia: Documented Symptomatic (overall),patients with T2DM; Moderate (n = 175),28 (16) N (%)
same,Pre-Rescue Hypoglycemia: Severe (overall),patients with T2DM; Moderate (n = 175),0 (0) N (%)
same,Renal Impairment (adverse event),patients with T2DM; Moderate (n = 175),3 (1.7) N (%)
same,Serious AE,patients with T2DM; Moderate (n = 175),17 (9.7) N (%)
same,"Pre-Rescue Hypoglycemia: Documented Symptomatic, With background SU",patients with T2DM; Normal,44 (21) N (%)
same,"Pre-Rescue Hypoglycemia: Documented Symptomatic, Without background SU",patients with T2DM; Normal,0 (0) N (%)
same,"Pre-Rescue Hypoglycemia: Severe, With background SU",patients with T2DM; Normal,1 (0.3) N (%)
same,"Pre-Rescue Hypoglycemia: Severe, Without background SU",patients with T2DM; Normal,0 (0) N (%)
same,AEs leading to withdrawal,patients with T2DM; Normal (n = 286),11 (3.8) N (%)
same,Abdominal distention,patients with T2DM; Normal (n = 286),2 (0.7) N (%)
same,Anemia,patients with T2DM; Normal (n = 286),6 (2.1) N (%)
same,Any AE,patients with T2DM; Normal (n = 286),232 (81) N (%)
same,Constipation,patients with T2DM; Normal (n = 286),8 (2.8) N (%)
same,Diarrhea,patients with T2DM; Normal (n = 286),20 (7.0) N (%)
same,Edema peripheral,patients with T2DM; Normal (n = 286),5 (1.7) N (%)
same,Gastrointestinal disorders system organ class: Any event,patients with T2DM; Normal (n = 286),76 (27) N (%)
same,Injection site reaction,patients with T2DM; Normal (n = 286),32 (11) N (%)
same,Nasopharyngitis,patients with T2DM; Normal (n = 286),19 (6.6) N (%)
same,Nausea,patients with T2DM; Normal (n = 286),23 (8.0) N (%)
same,Pre-Rescue Hypoglycemia: Documented Symptomatic (overall),patients with T2DM; Normal (n = 286),44 (15) N (%)
same,Pre-Rescue Hypoglycemia: Severe (overall),patients with T2DM; Normal (n = 286),1 (0.3) N (%)
same,Renal Impairment (adverse event),patients with T2DM; Normal (n = 286),0 (0) N (%)
same,Serious AE,patients with T2DM; Normal (n = 286),17 (5.9) N (%)
same,"Pre-Rescue Hypoglycemia: Documented Symptomatic, With background SU",patients with T2DM; Severe,4 (29) N (%)
same,"Pre-Rescue Hypoglycemia: Documented Symptomatic, Without background SU",patients with T2DM; Severe,0 (0) N (%)
same,"Pre-Rescue Hypoglycemia: Severe, With background SU",patients with T2DM; Severe,0 (0) N (%)
same,"Pre-Rescue Hypoglycemia: Severe, Without background SU",patients with T2DM; Severe,0 (0) N (%)
same,AEs leading to withdrawal,patients with T2DM; Severe (n = 19),2 (11) N (%)
same,Abdominal distention,patients with T2DM; Severe (n = 19),2 (11) N (%)
same,Anemia,patients with T2DM; Severe (n = 19),4 (21) N (%)
same,Any AE,patients with T2DM; Severe (n = 19),12 (63) N (%)
same,Constipation,patients with T2DM; Severe (n = 19),2 (11) N (%)
same,Diarrhea,patients with T2DM; Severe (n = 19),4 (21) N (%)
same,Edema peripheral,patients with T2DM; Severe (n = 19),3 (16) N (%)
same,Gastrointestinal disorders system organ class: Any event,patients with T2DM; Severe (n = 19),8 (42) N (%)
same,Injection site reaction,patients with T2DM; Severe (n = 19),1 (5.3) N (%)
same,Nasopharyngitis,patients with T2DM; Severe (n = 19),1 (5.3) N (%)
same,Nausea,patients with T2DM; Severe (n = 19),3 (16) N (%)
same,Pre-Rescue Hypoglycemia: Documented Symptomatic (overall),patients with T2DM; Severe (n = 19),4 (21) N (%)
same,Pre-Rescue Hypoglycemia: Severe (overall),patients with T2DM; Severe (n = 19),0 (0) N (%)
same,Renal Impairment (adverse event),patients with T2DM; Severe (n = 19),4 (21) N (%)
same,Serious AE,patients with T2DM; Severe (n = 19),0 (0) N (%)
same,treatment effect as measured by HbA1c and FPG vs GFR,"patients with T2DM; change from baseline, scatter plot",trend towards greater reductions as GFR decreased
same,thyroid cancer,patients with T2DM; in vivo,No patient developed thyroid cancer
same,"nausea, percentage",patients with T2DM; mild group,9.5%
same,"vomiting, percentage",patients with T2DM; mild group,3.2%
same,"nausea, percentage",patients with T2DM; moderate group,7.4%
same,"vomiting, percentage",patients with T2DM; moderate group,2.9%
same,"nausea, percentage",patients with T2DM; normal group,8.0%
same,"vomiting, percentage",patients with T2DM; normal group,2.1%
same,subjects with severe hypoglycemic events,"patients with T2DM; normal, mild renal impairment, with background SU use",2
same,patients with probable pancreatitis at least possibly related to study drug,patients with T2DM; one with mild and one with moderate renal impairment,Two
same,"nausea percentage, range",patients with T2DM; [2],7-16%
same,"vomiting percentage, range",patients with T2DM; [2],2-5%
same,incidence of anti-albiglutide antibodies,patients with T2DM; range over the 4 trials of the pooled analysis,2.8% to 8.1
same,"nausea, percentage",patients with T2DM; severe group,16%
same,"vomiting, percentage",patients with T2DM; severe group,5.3%

# Reference: patent US20140378374A1, “METHODS OF TREATMENT” (GlaxoSmithKline Intellectual Property (No.2) Limited, priority 2013, published 2014)
